Data taken from publication PMC4353692.

Molecular target: Manduca sexta V-ATPase subunit c (c ring) (Manduca sexta (endogenous in midgut))
Test: cryo-EM structure; M. sexta V-ATPase holoenzyme purified from tissue, in C12E10; 9.4 Å reconstruction (gold standard FSC 0.143); homology models of the subunits flexibly fitted by MDFF; side chains not resolved

stoichiometry N: 8
Substance: Manduca sexta V-ATPase subunit c (c ring) (natural protein)
